USRE48805E1, “Method for cancer targeting treatment and detection of arginine using albumin-binding arginine deiminase fusion protein” (Vision Global Holdings Ltd., priority 2013, dated 2021)

What was measured:
N=C(N)NCCC[C@H](N)C(=O)O [1] = assay: Enzyme kinetics (Km), citrulline detection by DAM-TSC assay; format: biochemical, Bacillus cereus; conditions: other: substrate arginine (62.5-2000 μM), pH 7.4
Procedure: (§1) To determine the enzyme activity for wild-type ADI and AAD fusion protein in the present invention, the diacetyl monoxime (DAM)-thiosemicarbazide (TSC) assay for citrulline detection is used. The reaction is shown below. L-Arginine argininedeiminase(ADI)orAADfusion>L-Citrulline+Ammonia
(§2) This assay is run by adding sample to a color reagent, which is made by mixing acidic ferric chloride solution with DAM-TSC solution. […] The reaction mixture is heated at 100° C. for […] to develop the color and read at 540 nm (light path=1 cm). A standard curve is constructed using various concentrations of citrulline. One unit of the ADI native enzyme is the amount of enzyme activity that converts 1 μmol of arginine to 1 μmol of citrulline per minute at 37° C. under the assay conditions. The specific activities of wild-type ADI, pegylated ADI (Ensor et al., Cancer Res. 62:5443-5450, 2002) and AAD fusion protein in the present invention are about 20, 15 and 19 U/mg (at pH 7.4, physiological pH), respectively. The specific activities for wild-type ADI and AAD fusion protein at different pH values (in a range from pH 5.5 to 9.5) are also determined, and the optimum pH is at 6.5.
(§3) The Michaelis constant Km is the substrate concentration at which the reaction rate is at half-maximum, and is an inverse measure of the substrate's affinity for the enzyme. […]

N=C(N)NCCC[C@H](N)C(=O)O [2] = assay: as above; format: biochemical, Mycoplasma arginini; conditions: other: substrate arginine (62.5-2000 μM), pH 7.4
Procedure: as §1, §2, §3

AAD fusion protein His-ABD-PolyN-bcADI (FIG. 3F), SEQ ID NO: 41, ADI originated from Bacillus cereus (Bacillus cereus AH820)
Km (N=C(N)NCCC[C@H](N)C(=O)O [1]): 132 µM

AAD fusion protein His-ABD-PolyN-ADI (FIG. 3E), SEQ ID NO: 40, ADI originated from Mycoplasma arginini (Mycoplasmopsis arginini)
Km (N=C(N)NCCC[C@H](N)C(=O)O [2]): 4.1 µM
